Experimental data: article PMC11109976, “CSB and SMARCAL1 compete for RPA32 at stalled forks and differentially control the fate of stalled forks in BRCA2-deficient cells” (Nucleic Acids Research, 2024)

Experiments:
[1] = biological target: RPA32C C-terminal domain (Homo sapiens) (UniProt P15927); assay: ITC; conditions: cited from earlier work
[2] = biological target: T1, RPA32 construct spanning the region 210-270 (UniProt P15927 210-270, RED-tris-NTA dye on the His tag); assay: MST; RPA32C labelled with RED-tris-NTA (His-tag labelling kit), 100 nM mixed 1:1 with 2-fold serial dilutions of the ligand; 50 mM HEPES pH 8.0, 400 mM NaCl, 10% glycerol, 0.05% Tween-20; incubated 30 min at 37°C, measured at 25°C; three replicates; conditions: both partners purified
T1 construct: RPA32, residues 210-270 (C-terminal winged helix domain); Cloned by LIC; also called RPA32(210-270); C-terminal winged helix domain of RPA32; source: E. coli SoluBL21, purified (Ni-NTA, anion exchange, SEC)
T1 sequence (P15927 210-270): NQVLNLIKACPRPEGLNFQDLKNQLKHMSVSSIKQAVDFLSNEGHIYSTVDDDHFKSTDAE

Sequence of RPA32C C-terminal domain (Homo sapiens) (P15927 202-270): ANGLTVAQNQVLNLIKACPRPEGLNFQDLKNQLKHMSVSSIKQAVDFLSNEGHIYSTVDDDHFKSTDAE

Kd [2] | Molecule | Kd [1]
– | SMARCAL1 peptide 5-30 (from UniProt Q9NZC9) | 2.9 µM
470 µM | LTEEQRKKIEENRQKALARRAEKLLA (SMARCAL1, residues 5-30; also called 26-amino acid SMARCAL1 peptide; source: synthetic peptide, bought: LifeTein, LLC) [SMARCAL1 peptide (residues 5-30)] | –
